These results are taken from US6534267 (dated 2003).

This series deals with the molecule itself. Kind of series: gel filtration of purified native Smac (self-association).

B1: 25-kDa Smac (second mitochondria-derived activator of caspase), native mature protein from HeLa cells (other)
chain: AVPIAQKSEPHSLSSEALMRRAVSLVTDSTSTFLSQTTYALIEAITEYTKAVYTLTSLYRQYTSLLGKMNSEEEDEVWQVIIGARAEMTSKHQEYLKLETTWMTAVGLSEMAAEAAYQTGADQASITARNHIQLVKLQVEEVHQLSRKAETKLAEAQIEELRQKTQEEGEERAESEQEAYLRED
notes: The HeLa protein is also about 25 kDa; Gel filtration points to a homotetramer; also called 25-kDa protein; native Smac
With B1, the binding result is “binds”.
